Measured values published in article PMC9398005 (2021).

Assays:
Experiment in all cases: ITC
[1] = molecular target: mouse Rbpj (53-474) K195E (mouse, UniProt P31266 53-474, K195E)
mouse Rbpj (53-474) WT = mouse Rbpj (53-474) WT (mouse, UniProt P31266 53-474)
[2] = molecular target: Drosophila Su(H) (98-523) K132M (Drosophila, UniProt P28159 98-523, K132M | R155T)
[3] = molecular target: Drosophila Su(H) (98-523) E137V (Drosophila, UniProt P28159 98-523, E137V | R155T)
Sequence of Drosophila Su(H) (98-523) E137V (P28159 98-523 E137V/R155T/N281G): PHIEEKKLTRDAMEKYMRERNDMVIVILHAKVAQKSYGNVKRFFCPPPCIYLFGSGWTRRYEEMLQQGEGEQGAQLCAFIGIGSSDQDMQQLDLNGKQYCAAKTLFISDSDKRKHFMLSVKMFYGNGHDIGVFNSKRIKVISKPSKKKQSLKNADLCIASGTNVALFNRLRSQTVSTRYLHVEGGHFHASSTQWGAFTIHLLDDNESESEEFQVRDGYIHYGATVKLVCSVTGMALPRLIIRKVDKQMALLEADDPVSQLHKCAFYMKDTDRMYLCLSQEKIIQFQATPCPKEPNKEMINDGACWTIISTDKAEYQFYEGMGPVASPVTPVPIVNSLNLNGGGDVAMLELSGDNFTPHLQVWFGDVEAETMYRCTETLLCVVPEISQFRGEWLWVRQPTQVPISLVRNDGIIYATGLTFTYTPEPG

Sequence of mouse Rbpj (53-474) K195E (P31266 53-474 K195E): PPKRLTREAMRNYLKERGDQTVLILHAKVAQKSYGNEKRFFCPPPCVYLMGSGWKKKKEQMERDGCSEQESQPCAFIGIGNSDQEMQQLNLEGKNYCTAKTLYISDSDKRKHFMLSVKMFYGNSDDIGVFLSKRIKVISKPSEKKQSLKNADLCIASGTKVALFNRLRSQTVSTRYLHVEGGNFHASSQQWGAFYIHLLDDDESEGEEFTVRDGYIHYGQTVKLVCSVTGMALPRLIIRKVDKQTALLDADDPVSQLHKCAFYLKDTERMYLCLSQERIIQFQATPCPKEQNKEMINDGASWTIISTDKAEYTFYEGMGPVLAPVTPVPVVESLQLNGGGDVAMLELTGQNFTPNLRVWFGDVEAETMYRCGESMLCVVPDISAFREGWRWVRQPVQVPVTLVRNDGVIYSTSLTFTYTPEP
Sequence of mouse Rbpj (53-474) WT (P31266 53-474): as the sequence (P31266 53-474 K195E) above, with E143K counted along it
Sequence of Drosophila Su(H) (98-523) K132M (P28159 98-523 K132M/R155T/N281G): as the sequence (P28159 98-523 E137V/R155T/N281G) above, with K35M, V40E counted along it

## VLLSRKRRRQHGQLWFPEGFKVSEASKK [Notch1 RAM peptide (human Notch1 residues 1754-1781)]
[1]
  Kd: 22 nM

B1: SHARP residues 2776-2833 (domain or fragment)
chain: RASANENSRFHPGSMPVIDDRPADAGSGAGLRVNTSEGVVLLSYSGQKTEGPQRISAK
Mouse Rbpj (53-474) WT
  Kd: 4 nM

## VLSTQRKRAHGVTWFPEGFRAPAAVMSR [Drosophila Notch RAM peptide (residues 1763-1790)]
[2]
  Kd: 107 nM
[3]
  Kd: 166 nM
